The source of these data is the nanobody polyreactivity screen of Harvey et al. (2022).

This series in a line: yeast display, Sf9 membrane polyspecificity reagent, FACS + sequencing; frameworks hold sequencing errors. The procedure, abridged: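 Nanobodies came from a synthetic yeast display library in Saccharomyces cerevisiae BJ5465, induced with galactose for 36–48 hours and stained for 1 hour at 4 °C with 10% biotinylated, detergent-solubilized Sf9 membrane reagent. Cells were enriched on streptavidin microbeads and then FACS-sorted, with low and high (top ~1%) gates set on anti-HA fluorescence for expression and streptavidin fluorescence for reagent binding. Each polyreactivity label reflects the gate a clone came from. Genes were amplified by colony PCR, sequenced by MiSeq 2 × 250 and filtered by CDR length.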
For “QVQLVESGGGLVQAGGSLRLSCAASGSIFPGNGMGWYRQAPGKERELVAAITWSVATTYYADSVKGRFTISRDNAKNTVYLQMNSLKPEDTAVYYCAADDAYPYDWGQGTQVTVSS”, the “polyreactivity (PSR sort gate)” value is recorded as “low polyreactivity”.

As for “QVQLVESGGGLVQAGGSLRLSCAASGSIFPAYTMGRYRQAPGKEREMVAAIPYSGARSTYYADSVKGRFTISRDNAKNTVYLQMYSLKPEDTAVYYCNARSRARYFYDMDYWGQGTLVTVSS”, the “polyreactivity (PSR sort gate)” value is reported as “low polyreactivity”.

Take “QVQLVESGGGLVQAGGSLRLSCAASGLILDGYAMGWYRQAPGKERELVAAITRSGGRTYYADSVKGRFTISRDNAKNTVYLQMNSLKPEDTAVYYCAALGWSGRYRYDYWGQGTQVTVSS”: the “polyreactivity (PSR sort gate)” value is “high polyreactivity”.

In the case of “QVQLVESGGGLVQAGGSLRLSCAASGSIFYLYDKGWYRQAPGKERELVADITWSGGSTYYADSVKGRFTISRDNAKNTVYLQMYSLKPEDTAVYYCAAAYGPFYYELYDYWGLGTQVTVSS”, the “polyreactivity (PSR sort gate)” value is “low polyreactivity”.

Regarding “QVQLVESGGGLVQAGGSLRLSCAASGLIFVWYAMGWYRQAPGKERELVAAITRSGGSTYYADSVKGRFTISRDNAKNTVYLQMNSLKPEDTAVYYCAARWKFPSSFYYWGQGTQVTVSS”, the “polyreactivity (PSR sort gate)” value is “high polyreactivity”.

On to “QVQLVESGGGLVQAGGSLRLSCAASGRTFRYYDMGWYRQATGKERELVARISISGAGTYYADSVKGRFTISRDNAKNTVYLQINSLKPEDTAVYYCAADLFWWQKTNSGGDYWGQGTQVTVSS”, for which the “polyreactivity (PSR sort gate)” value is recorded as “low polyreactivity”.

In the case of “QVQLVESGGGLVQAGGSLRLSCAASGRIFAPYDMGWYRQAPGKERELVAAISRSGGSTYYADSVKGRFTISRDNAKNSVYFQLNSLKPEDTAVYYCAASYPGRYWLYRYEYWGQGTQVTVSS”, the “polyreactivity (PSR sort gate)” value is listed as “high polyreactivity”.

As to “QVQLVESGGGLVQAGGSLRLSCAASGRIFGNYAMGWYRQAPGKARELVAAITSGARTYYADSVKGRFTISRDNAKNTVYLQMNSLKPEDTAVYYCAAYHKSYSYRYDYWGQGTQVTVSS”, the “polyreactivity (PSR sort gate)” value is given as “high polyreactivity”.

On to “QVQLVESGGGLVQAGGSLRLSCAASGSTFYRYAMGWYRQAPGKEREFVAAISRSGGSTYYADSVKGRFTISRDNAKNTVYLQMNSLNPEDTAVYYCNALNYRYRKYDYWGQGTQVTVSS”, for which the “polyreactivity (PSR sort gate)” value is “high polyreactivity”.

With “QVQLVESGGGLVQAGGSLRLSCAASGRTSWVYAMGWYRQAPGKERELVASIRKRTVVYADSVKGRFTISRDNAKNTVYLQMNSLKPEDTAVYYCNADTTFYGYRTYRPENYWGQGTQVTVSS”, the “polyreactivity (PSR sort gate)” value is recorded as “high polyreactivity”.

Consider “QVQLVESGGGLVQAGGSLRLSCAASGLIFRHYVMGWYRQAPGKERELVAAITSRGGTTYYADSVKGRFTISRDNAKNTVYLQMNSLKPEDTAVYYCNVVQNSRHGYTSYYWGQGTQVTVSS”, for which the “polyreactivity (PSR sort gate)” value is reported as “high polyreactivity”.

In the case of “QVQLVESGGGLVQAGGSLRLSCAASGLTFGWYTMGWYRQAPGKERELVADITWSGGSTYYADSVKGRFTISRDNAKNTVYLQMNSLKPEDTAVYYCAVRYFVIPWYAYDYWGQGTQVTVSS”, the “polyreactivity (PSR sort gate)” value was “low polyreactivity”.

As for “QVQLVESGGGLVQAGGSLRLSCAASGLTFYPNAMGWYRQAPGKEREFVASISISGRTYYADSVKGRFTISRDNAKNTVYLQMNSLKPEDTAVYYCAARYVRSGLYRKYDYWGQGTQVTVSS”, the “polyreactivity (PSR sort gate)” value was “high polyreactivity”.

As to “QVQLVESGGGLVQAGGSLRLSCAASGLTCSRYAMGWYRQAPGKERELVASISQGGGSTYYADSVKGRFTISRDNAKNTVYLQMTSLKPEDTAVYYCAASWYYSLQRYGYWGQGTQVTVSS”, the “polyreactivity (PSR sort gate)” value is listed as “high polyreactivity”.

On to “QVQLVESGGGLVQAGGSLRLSCAASGYTFLRNAMGWYRQAPGKERELVAAISYSGGGTYYPDSVMGRFTISRDHAKNTVYLKMNSLKPEDTAVYYCNVAQRYYGNFFSSRYESWGQGTQVTVSS”, for which the “polyreactivity (PSR sort gate)” value is given as “low polyreactivity”.

Take “RVQLVESGGGLVQAGGSLRFSCAASGRIFPNNAMGWSSQAPGKARELVAAISRTGGSTYYADSVKGRFTISRDNAKNTVYLQMNSLKPEDTAVYYCAASHARWSPYYSRYYYWGQGTQVTGSS”: the “polyreactivity (PSR sort gate)” value is “high polyreactivity”.

As to “QVQLVESGGGLVQAGGSLRLSCAASGSTFAYNALGWYRQAPGKERELVAAIDINDGNTYYADSVKGRFTISRDTAKNTVNLQINSLKPEDTAVYYCAAEYFYPYYGAMDYWGQGTQVTVSS”, the “polyreactivity (PSR sort gate)” value is reported as “low polyreactivity”.

“QVQLVESGGGLVQAGGSLRLSCAASGSIFNPYAMGWYRQAPGKERELVAVIRSRGDRTYYADSVKGRFTISRDYAKNTVYLQMNSLKPEDTAVYYCAVRAQESLWKQYYYWGQGTQVTVSS”: the “polyreactivity (PSR sort gate)” value is “high polyreactivity”.

With “QVQLVESGGGLVQAGGSLRFSCAASGSIFDYYAMGWYRQAPGKERELVASITWSGGRTSYADSVKGRFTISRDNAKNTVYLQMNSLKPEDTAVYYCAAKLWSYAYQHKRVWYYYWGQGTQVTVSS”, the “polyreactivity (PSR sort gate)” value was “high polyreactivity”.

As for “QVQLVESGGGLVQAGGSLRLSCAASGYILRRNAMGWYRKAPGKERELVARINSSGGSTYYADSVKGRFTISRDNAKNTVYLQMNSLKPEDTAVYYCAKSYYRGRDYWGQGTQVTVSS”, the “polyreactivity (PSR sort gate)” value was “high polyreactivity”.

“QVQLVESGGGLVQAGGSLRLSCAASGRIIAWNDMGWYRQAPGKERELVAAIRWSSGTTYYADSVKGRFTISRDNAKNTVYLQINSLKPEDTAVYYCAAGGHARTWYAYYYWGQGTQVTVSS”: the “polyreactivity (PSR sort gate)” value is on record as “low polyreactivity”.

For the sequence “QVQLVESWGGLVQAGGSLRLSCAASGSTFDVNAMGWYRQAPGKERELVAAISWNSGSTYYADSVKGRFTISRDNAKNTVYLQMNSLKPEDTAVYYCAARNPFNHPLDYWGQGTQVTVSS”, the “polyreactivity (PSR sort gate)” value is “high polyreactivity”.

Regarding “QVQLVESGGGLVQAGGSLRLSCAASGRIFGHYAMGWYRQAPGKERELVAAITRSGDRTYYADSVKGRFTISRDNAKNTVYLQMNSLKPEDTEVYYCAADVSAVQGYYYWGQGTQVTVSS”, the “polyreactivity (PSR sort gate)” value is listed as “low polyreactivity”.

For “QVQLVESGGGLVQAGGSLRLSCAASGFTFKGYTMGWYRQAPGKERELVAGISRRGGSTYYADSVKGRFTISRDNAKNTVYLQMNSLKPEDTAVYYCAADSQLTKFYYWGQGTQVTVSS”, the “polyreactivity (PSR sort gate)” value is “high polyreactivity”.

For “QVQLVESGGCLVQAGGSLRLSCAASGITFESNAMGWYRQAPGIEREFVAAISYDGGDTYYADSVKGRFTISRDNAKNTVYLEMTSLKTEDTAVFYCAAEPGWTMDYWGQGTQVTVSS”, the “polyreactivity (PSR sort gate)” value is listed as “low polyreactivity”.

Regarding “QVQLVESGGGLVQAGGSLRLSCAASGSIFDGYAMGWDRQAPGKEREFVATITVSGGRTYYADSVKGRFTISRDNAKTTVYLQRNSLKPEDTAVYYCAARKVPLIRSSTVRQYYYWGQGTQVTVSS”, the “polyreactivity (PSR sort gate)” value is listed as “high polyreactivity”.

As to “QVQLVESGAALVQAGGSLRLSCAASGFTFFTYAMGWYRQATGKDSELVAAITSSGGSTYYADSVKGRFTISRDNAKNTVYLQMNSLNPEDTAVYDCAASVYFWYDYWGQGTQGTVSS”, the “polyreactivity (PSR sort gate)” value is “high polyreactivity”.

As to “QVQLVESGGGLVQAGGSLRLSCAASGSIFFYYTMGWYRQAPGKERELVAAISDSGGSTYYADSVKGRFTISRDNAKNTVYLQMNSLKPEDTAVYYCAAADWFTVLESERVDYWGQGTQVTVSS”, the “polyreactivity (PSR sort gate)” value is “low polyreactivity”.

“QVQLVESGGGLVQAGGSLRLSCAASGSIFWYYAMGWYRQAPGKERELVASISSGGSTTYADSVKGRFTISCDNAKNTVYLQMISLKPEDTAVYYCNADYFGGGDYWGQGTQVTVSS”: the “polyreactivity (PSR sort gate)” value is given as “low polyreactivity”.

On to “QVQLVQSGGGLVQAGGSLRLSSAASGSTFWANAMGWYRQAPGKERELVAAISVRGGNTYYADSVKGRFTISRDNAKNTVYLQMNSLKPEDTAVYYCAARPISWTSYYDYWGQGTQVSVSS”, for which the “polyreactivity (PSR sort gate)” value is recorded as “high polyreactivity”.

In the case of “QVQLVESGGGLVQAGGSLRLSCAASGFIFGGYAMGWYRQAPGKERELVADISSGDSTKYADSVKGRFTISRDNAKNTVYLQMNSLKPEDTAVYYCAADAVVSTWTQFEYDYWGQGTQVTVSS”, the “polyreactivity (PSR sort gate)” value is listed as “low polyreactivity”.

In the case of “QVQLVESGGGLVQAGGSLRLSCAASGRIFNRNAMVWSRQAPGKERELVASISSGGRTNYADSVKGRFTISRDNAKNTVYLQMNSLKPEDTAVYYCAAKSPRILLDYWGQGTQVTVSS”, the “polyreactivity (PSR sort gate)” value is recorded as “low polyreactivity”.

Turning to “QVQLVESGGGLVQAGGSLRLSCAASGSTFFIYAMGWYRQAPGKERELVAVIRNIDVRTYYADSVKGRFTISRDNAKNTVYLQMNSLKPEDTAVYYCAADELLDESVDMYYWGQGTQVTVSS”, the “polyreactivity (PSR sort gate)” value is recorded as “low polyreactivity”.

For the sequence “QVQLVESGGGLVQAGGSLRLSCAASGSIFDYYAMGWYRQAPGKERELVASITWSGGRTSYADSVKGRFTISRDNAKNTVYLQMNSLKPEDSAVYYCAAKLWSYAYQHKRVWYYYWGQGTQVTVSS”, the “polyreactivity (PSR sort gate)” value is “high polyreactivity”.

Take “QVQLVESGGGLVQAGGSLRLSCAASGSIFSGYTMGWYRQAPGQERELVAAISYRGGRTYYADSVKGRFTISRDNAKNTVYLQMNSLKPEDTAVYYCNAAPYITRRHDYWGQGTQVTVSS”: the “polyreactivity (PSR sort gate)” value is “high polyreactivity”.

Regarding “QVQLVESGVGLVQAGGILRLSCAAYGTFGSYAMGWYRQAPGKERELVASISGTGGDTYYADSVKGRFTISRDNAKNTVYLQMNSLKPEDTAVYDCAARWSRYWYLGSWLYDYWGQGTQVSVSS”, the “polyreactivity (PSR sort gate)” value is listed as “high polyreactivity”.

Take “QVQLVESGGGLVQAGGSLRLSCAASGSTFDSYGMGWYRQAPGKERELVASISSRGGSTYYADSVKGRFTLSRDNAKNTVYFQMNSLKPEDTAVYYCAAKGPRRWGSGFDYWGQGTQVTVSS”: the “polyreactivity (PSR sort gate)” value is “low polyreactivity”.

For “QVQLVESGGGLVQAGGSLRLSCAASGRIFGGYVMGWYRQAPGKEREFVAAISGRGTSTSYADSVKGRFTISRDNAKNTVYLQMNSLKPEDTAVYYCAARRDGWTFWKYDYWGQGTQVTVSS”, the “polyreactivity (PSR sort gate)” value is recorded as “high polyreactivity”.

For the sequence “QVQLVESGGGLVQAEGSLRLSCAASGSTLLYAMGWYRQAPGKERELVAAISIGDSTNYADSVKGRFTISRDNAKNTVYLQMNSLKPEDTAVYYCNADQGSNYYWGQGTQVTVSS”, the “polyreactivity (PSR sort gate)” value is recorded as “low polyreactivity”.

For the sequence “QVKLVESRGGLVQAGGSLRLSCAASGFTFFLYTMGWYRQAPGKERELVATITSAGTTNYADSVKGRFTISRDNAKNTVYLQMNSLIPEDTAVYYCNADRWEYDYWGQGTQVTVSS”, the “polyreactivity (PSR sort gate)” value was “low polyreactivity”.

Consider “QVQLVESGGGLVHAGCSLRLSCAASGNIFYAYAMGWYRQAPGKERELVAAISWSGDSTYYADSVKGRFTISRDNAKNTVYLQMNSLKPEDTAVYYCAARKVTYHYQWMDYWGQGSQVTVSS”, for which the “polyreactivity (PSR sort gate)” value is given as “low polyreactivity”.
